Reference: paper PMC7300195 (Frontiers in Immunology, 2020)

Key:
Assay in all cases: BLI
Details in all cases: both partners purified
[1] = biological target: NiV G trimer: NiV G head domain residues 172-602 coupled to an N-terminal foldon domain (Nipah virus, Malaysia (AAK50545.1), UniProt Q9IH62)
[2] = biological target: hexameric NiV G: two G ectodomain headgroups linked by a foldon trimerization domain via short glycine linkers (Nipah virus, Malaysia (AAK50545.1), UniProt Q9IH62)
[3] = biological target: T1, NiV G ferritin 24-mer nanoparticle: NiV G ectodomain residues 172-602 linked to the C-terminus of ferritin … (Nipah virus, Malaysia (AAK50545.1), UniProt Q9IH62)
T1 construct: copies: 24

Measured: binding result

B1: m102.4 monoclonal antibody (HeV G-specific antibody), human IgG1/kappa (antibody, V domains shown)
VH: EVQVIQSGADVKKPGSSVKVSCKSSGGTFSKYAINWVRQAPGQGLEWMGGIIPILGIANYAQKFQGRVTITTDESTSTAYMELSSLRSEDTAVYYCARGWGREQLAPHPSQYYYYYYGMDVWGQGTTVTVSS
VL: EIVMTQSPGTLSLAPGERATLSCWASQSVRNNYLAWYQQKPGQAPRLVIYNGSTRATGIPDRFSGSGSGTDFTLTISRLDPEDFAVYYCQQYGNSRRVTFGGGTKVEIK
binds: all assays above
